In PMC7516004, “RICE CENTRORADIALIS 1, a TFL1-like Gene, Responses to Drought Stress and Regulates Rice Flowering Transition”:

T1: TRAB1 (Oryza sativa, UniProt Q6ZDF3 1-374)
T1 sequence: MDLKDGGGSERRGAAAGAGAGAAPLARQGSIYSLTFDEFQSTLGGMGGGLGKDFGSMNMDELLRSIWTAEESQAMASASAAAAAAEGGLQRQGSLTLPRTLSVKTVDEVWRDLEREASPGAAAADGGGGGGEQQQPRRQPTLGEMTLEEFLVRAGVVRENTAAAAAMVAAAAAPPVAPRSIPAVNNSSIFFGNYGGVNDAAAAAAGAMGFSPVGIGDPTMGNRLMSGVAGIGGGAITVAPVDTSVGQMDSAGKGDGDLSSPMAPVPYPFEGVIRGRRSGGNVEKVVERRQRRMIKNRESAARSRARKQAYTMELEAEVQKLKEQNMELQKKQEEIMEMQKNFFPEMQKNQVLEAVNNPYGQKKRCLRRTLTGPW

T2: OSBZ8 (Oryza sativa, UniProt Q40645 1-360)
T2 sequence: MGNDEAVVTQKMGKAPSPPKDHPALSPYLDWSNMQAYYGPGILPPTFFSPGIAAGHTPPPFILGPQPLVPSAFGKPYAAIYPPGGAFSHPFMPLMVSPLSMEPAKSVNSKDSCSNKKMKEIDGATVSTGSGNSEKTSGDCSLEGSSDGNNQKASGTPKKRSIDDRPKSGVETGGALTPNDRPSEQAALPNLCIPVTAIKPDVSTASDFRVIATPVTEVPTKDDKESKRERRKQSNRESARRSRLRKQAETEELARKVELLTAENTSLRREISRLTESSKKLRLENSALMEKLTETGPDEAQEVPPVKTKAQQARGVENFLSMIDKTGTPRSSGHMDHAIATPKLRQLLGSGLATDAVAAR


Assays:
TRAB1 = target: T1, TRAB1; test: EMSA; Chemiluminescent Nucleic Acid Detection Module Kit (Thermo) per manufacturer; binding buffer, salt, pH and temperature not stated; conditions: protein: recombinant; tags: His (pCold vector); chain copies: 2; label: biotin
OSBZ8 = target: T2, OSBZ8; test: as above; conditions: protein: recombinant; tags: His (pCold vector); chain copies: 2; label: biotin

Row | Binder | binding result (TRAB1) | binding result (OSBZ8)
1 | Probe 12 (dsDNA) DNA 1: AGTCAAATTAGCCACGTAGGCGACACGTCAGCTAAAACCGC DNA 2: GCGGTTTTAGCTGACGTGTCGCCTACGTGGCTAATTTGACT | no binding | 
2 | Mutant-13 (dsDNA) DNA 1: CTTCATCTGGACACTGGGCGCTTGGCAAGTTGA DNA 2: TCAACTTGCCAAGCGCCCAGTGTCCAGATGAAG |  | no binding
3 | Probe 4 (dsDNA) DNA 1: TTGAGTTTTTGCTTGCAACGTTTGACCACTCGTCTTATTC DNA 2: GAATAAGACGAGTGGTCAAACGTTGCAAGCAAAAACTCAA | no binding | no binding
4 | Probe 1 (dsDNA) DNA 1: ATCGTGTTCTTCGCCGGCACGTGGTAATGGGCAGAATCTCC DNA 2: GGAGATTCTGCCCATTACCACGTGCCGGCGAAGAACACGAT | no binding | no binding
5 | Probe 6 (dsDNA) DNA 1: TGTGGGACGGAGGGAGTACGTCACAAAAATTATGTTACAA DNA 2: TTGTAACATAATTTTTGTGACGTACTCCCTCCGTCCCACA | no binding | no binding
6 | Probe 7 (dsDNA) DNA 1: TCCTACATACCCTCAGCACGTAAAGCGAGAAGTTTTATCT DNA 2: AGATAAAACTTCTCGCTTTACGTGCTGAGGGTATGTAGGA | no binding | no binding
7 | Probe 9 (dsDNA) DNA 1: TGTGGTTTTGGCTGACGTGGCGCCTACGTGGCGAATTTGACTC DNA 2: GAGTCAAATTCGCCACGTAGGCGCCACGTCAGCCAAAACCACA | no binding | 
8 | Probe 10 (dsDNA) DNA 1: TCTTCATCTGACGTGGCATTGATGTGGTGCTTACGTGGCACTTCGA DNA 2: TCGAAGTGCCACGTAAGCACCACATCAATGCCACGTCAGATGAAGA | no binding | 
9 | Probe 8 (dsDNA) DNA 1: GATAAGATTGCTCAGCAACGTAATCTTCATAGATCCACTT DNA 2: AAGTGGATCTATGAAGATTACGTTGCTGAGCAATCTTATC | no binding | no binding
10 | Mutant-9 (dsDNA) DNA 1: TGTGGTTTTGGCTGGGCGCCTGGCGAATTTGACTC DNA 2: GAGTCAAATTCGCCAGGCGCCCAGCCAAAACCACA |  | no binding
11 | Mutant-10 (dsDNA) DNA 1: TCTTCATCTGGGCATTGATGTGGTGCTTGGCACTTCGA DNA 2: TCGAAGTGCCAAGCACCACATCAATGCCCAGATGAAGA |  | no binding
12 | Mutant-12 (dsDNA) DNA 1: AGTCAAATTAGCCAGGCGACCAGCTAAAACCGC DNA 2: GCGGTTTTAGCTGGTCGCCTGGCTAATTTGACT |  | no binding
13 | Mutant-14 (dsDNA) DNA 1: AGGAAAAATGGTGGGACCCGGGCCCCACATGTCATCCT DNA 2: AGGATGACATGTGGGGCCCGGGTCCCACCATTTTTCCT |  | no binding
14 | Mutant-11 (dsDNA) DNA 1: AATAAAAATGGTGGGACCCGGGCCCCACAAGTCATTCT DNA 2: AGAATGACTTGTGGGGCCCGGGTCCCACCATTTTTATT |  | no binding
15 | Probe 3 (dsDNA) DNA 1: GTCATTTTGAGGGGCTGACGTTTGGTGGACAGCGCAGTTT DNA 2: AAACTGCGCTGTCCACCAAACGTCAGCCCCTCAAAATGAC | no binding | no binding
16 | Probe 2 (dsDNA) DNA 1: AGCTTTGAAACATTTTCCACGTTTCATGAACCAACACTCAAT DNA 2: ATTGAGTGTTGGTTCATGAAACGTGGAAAATGTTTCAAAGCT | no binding | no binding
17 | Probe 13 (dsDNA) DNA 1: CTTCATCTGACGTGACACTGACGTGGCGCTTACGTGGCAAGTTGA DNA 2: TCAACTTGCCACGTAAGCGCCACGTCAGTGTCACGTCAGATGAAG | no binding | binds
18 | Probe 11 (dsDNA) DNA 1: AATAAAAATGGTGGGACCCACGTGGGCCCCACAAGTCATTCT DNA 2: AGAATGACTTGTGGGGCCCACGTGGGTCCCACCATTTTTATT | no binding | 
19 | Probe 14 (dsDNA) DNA 1: AGGAAAAATGGTGGGACCCACGTGGGCCCCACATGTCATCCT DNA 2: AGGATGACATGTGGGGCCCACGTGGGTCCCACCATTTTTCCT | no binding | 
20 | Probe 5 (dsDNA) DNA 1: ATAAGACAAGTGGTCAAACGTTGCAAACAAAAACTCAAAA DNA 2: TTTTGAGTTTTTGTTTGCAACGTTTGACCACTTGTCTTAT | no binding | no binding
